Reference: US20200109196A1 (MOGAM INSTITUTE FOR BIOMEDICAL RESEARCH, published 2020)
Residue numbers refer to the chain shown, from its start.

T1: recombinant human CEACAM-3/CD66d protein (Sino Biological; Cat. No. 11933-H08H) (human, UniProt P40198 35-155)
T1 construct: Bought protein; also called HCCM3
T1 sequence (looked up): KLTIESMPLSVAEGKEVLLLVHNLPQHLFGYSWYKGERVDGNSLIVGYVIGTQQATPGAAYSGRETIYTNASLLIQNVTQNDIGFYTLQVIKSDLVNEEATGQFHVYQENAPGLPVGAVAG

T2: human CEACAM1 expressed on the cell surface (CEACAM1-Jurkat T cells); HEK293 cells transfected with human … (human, UniProt P13688 35-526)
T2 construct: whole, on cells; also called CCM1
T2 sequence (looked up): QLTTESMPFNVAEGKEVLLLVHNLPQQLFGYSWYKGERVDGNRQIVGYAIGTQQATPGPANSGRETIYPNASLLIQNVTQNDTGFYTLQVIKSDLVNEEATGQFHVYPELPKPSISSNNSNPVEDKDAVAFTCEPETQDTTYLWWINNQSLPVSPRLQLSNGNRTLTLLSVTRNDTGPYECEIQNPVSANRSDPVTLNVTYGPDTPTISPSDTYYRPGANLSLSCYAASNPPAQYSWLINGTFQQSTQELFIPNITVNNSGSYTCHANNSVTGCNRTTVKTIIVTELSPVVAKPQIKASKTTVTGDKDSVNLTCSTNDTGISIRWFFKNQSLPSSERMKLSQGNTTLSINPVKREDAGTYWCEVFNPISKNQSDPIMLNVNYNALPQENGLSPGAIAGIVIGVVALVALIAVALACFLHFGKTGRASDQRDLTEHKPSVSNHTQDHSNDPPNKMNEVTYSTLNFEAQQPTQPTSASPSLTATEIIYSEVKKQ

B1: C18 (antibody, human IgG4 S228P, lambda, V domains shown)
VH: EVQLLESGGGLVQPGGSLRLSCAASGFTFSNYDMSWVRQAPGKGLEWVSGISHSSGSKYYADSVKGRFTISRDNSKNTLYLQMNSLRAEDTAVYYCARDPLPCLIPKCSYYYAMDVWGQGTLVTVSS
VL: QSVLTQPPSAPGTPGQRVTISCSGSSSNIGSNAVTWYQQLPGTAPKLLIYADSHRPSGVPDRFSGSKSGTSASLAISGLRSEDEADYYCGSWDDSLNAYVFGGGTKLTVLG
B2: C17 (antibody, human IgG4 S228P, lambda, V domains shown)
VH: EVQLLESGGGLVQPGGSLRLSCAASGFTFSDYSMSWVRQAPGKGLEWVSVIYPDDGNTYYADSVKGRFTISRDNSKNTLYLQMNSLRAEDTAVYYCARGSIWWLSLIPSSYNAMDVWGQGTLVAVSS
VL: B1 VL with P11S, S31N, T35N, D52N, S91A, D94A, A98G
B3: C15 (antibody, human IgG4 S228P, lambda, V domains shown)
VH: EVQLLESGGGLVQPGGSLRLSCAASGFTFSSYSMSWVRQAPGKGLEWVSSISPNGGNKYYADSVKGRFTISRDNSKNTLYLQMNSLGAEDTAVYYCAKDPYNIYQPLFDYWGQGTLVTVSS
VL: QSVLTQPLSASGTPGQRVTISCSGSSSNIGNNYVNWYQQLPGTAPKLLIYANSNRPSGVPDRFSGSKSGTSASLAISGLRSEEEADYYCGTWDASLSAYVFGGGTKLTVLG
B4: 4R9 (antibody, human IgG4 S228P, lambda, V domains shown)
VH: EVQLLESGGGLVQPGGSLRLSCAASGFTFSNYAMSWVRQAPGKGLEWVSVISHGGGSIYYADSVKGRLTISRDNSKNTLYLQMNSLRAEDTAVYYCARDPTKGYAPTFDYWGQGTLVTVSS
VL: B1 VL with P11S, S31N, A33Y, T35S, H54R, S91A, D94L, A98G
notes: also called C25-derived clone 4R9
B5: C25 (antibody, human IgG4 S228P, lambda, V domains shown)
VH: B4 VH
VL: B3 VL with L8P, N35S, N52D, N54K, E83D, T91A, S97N, A98G
notes: Made in ExpiHEK293F cells, protein A purified. huIgG4 is the isotype control and anti-huIgG4 the detection reagent; the isotype is not otherwise stated; also called anti-CEACAM1 antibody C25
B6: 4R9_H2-2 (antibody, human IgG4 S228P, lambda, V domains shown)
VH: B4 VH with T107L
VL: B1 VL with P11S, S31N, A33Y, T35S, H54R, S91A, D94L, A98G
notes: also called C25-derived clone 4R9_H2-2
B7: 4R26 (antibody, human IgG4 S228P, lambda, V domains shown)
VH: B4 VH
VL: B1 VL with P11S, S31N, A33Y, T35S, H54K, P56L, S91A, D94G, S95R, A98G
notes: also called C25-derived clone 4R26
B8: 4R9_H4-n20 (antibody, human IgG4 S228P, lambda, V domains shown)
VH: B4 VH with T28N
VL: B1 VL with P11S, S31N, A33Y, T35S, H54R, S91A, D94L, A98G
notes: also called C25-derived clone 4R9_H4-n20

biological target: T1, recombinant human CEACAM-3/CD66d …; assay: ELISA on coated antigen (0.25 µg/ml), HRP anti-human IgG Fc, OD450
Description: All of the recombinant human CEACAM-1/CD66a protein (R&D systems; Cat No. 2244-CM, HCCM1), recombinant human CEACAM-5/CD66e protein (R&D systems; Cat. No. 4128-CM, HCCM5), recombinant human CEACAM-6/CD66c protein (R&D systems; Cat. No. 3934-CM, HCCM6), recombinant human CEACAM-3/CD66d protein (Sino Biological; Cat. No. 11933-H08H, HCCM3), human B7-H5/Gi24/VISTA protein (Sino Biological; Cat. No. 13482-H08H, HVISTA), recombinant human CEACAM-1/CD66a protein Bulk (R&D systems; Cat. No. 2244-CM, HCCM1 (bulk)), recombinant human CEACAM1-N domain-Kappa protein (Mogam, in-house production, HCCM1-N domain-kappa), and BSA protein (2.5 μg each) were dissolved in 10 ml of PBS, respectively, and dispensed into a 96-well plate at 100 μl/well, which was incubated at 4° C. overnight. Thereafter, each well was treated with 300 μl of 1% (v/v) bovine serum albumin, and incubated at 37° C. for 1 hour.
The diluted antibodies were dispensed into each well coated with each protein at 100 μl/well, and incubated at 37° C. for 1 hour. Then, each well was washed 3 times with a washing buffer prepared by diluting 10 μl of Tween 20 (Sigma-Aldrich; Cat. No. P9146) in 990 μl of PBS. Thereafter, 2 μl of HRP-conjugated human anti-IgG-Fc antibody (anti-human IgG Fc, Sigma Cat. No. A0170) was diluted in 10 ml of PBS, added to the wells at 100 μl/well, and incubated for 1 hour.
After completion of the reaction, the wells were washed three times with the washing buffer, and 100 μl of TMB solution was added to each well to induce color development. Then, 100 μl of 2 M H₂SO₄ was added to each well to stop the reaction, and the absorbance was measured at a wavelength of 450 nm.

Binder | binding result
B1 | no binding (tested: 3 µg/ml (single concentration))
B2 | no binding (tested: 3 µg/ml (single concentration))
B3 | no binding (tested: 3 µg/ml (single concentration))

biological target: T2, human CEACAM1 expressed on the cell …; assay: flow cytometry on CEACAM1-Jurkat T cells, PE goat anti-human F(ab)2, MFI [b]
Description: The CEACAM1-Jurkat T cells prepared above were treated with Fc block solution and incubated for 15 minutes. […] Herein, it is noted that the cell numbers were adjusted to 1×10⁵. The cells incubated with the antibodies were repeatedly subjected to the washing procedure of resuspending the cells in a FACS buffer and centrifuging the solution at 1,500 rpm.
PE-conjugated goat anti-human F(ab)₂; (Sigma; Cat. No. P8047)) was diluted in the FACS buffer at a volume ratio of 1:200, and then added to the cells at 100 μl/well. Cells were resuspended well and incubated at 4° C. for 30 minutes in a dark condition.
The cells incubated with the fixation buffer were repeatedly subjected to the washing procedure of resuspending the cells in a FACS buffer, centrifuging the solution at 1,500 rpm, and discarding the supernatant. The washed cells were resuspended in 200 μl of a FACS buffer, and the mean fluorescence intensities (MFIs) of the PE-labeled cells were monitored by a FACS LSR-Fortessa. All FACS analyses were conducted using the FlowJo software.

EC50 (read off the curve) [mg/L] | Binder
~0.05 | B4
~0.6 | B5
~0.04 | B6
~0.08 | B7
~0.4 | B8
